How the values were obtained:
RAGE-Fc chimera protein [1] = biological target: T1, RAGE-Fc chimera protein (UniProt Q15109 23-342); assay: BLI; kinetics
RAGE-Fc chimera protein [2] = biological target: T1, RAGE-Fc chimera protein; assay: ELISA
RAGE-Fc chimera protein [3] = biological target: T1, RAGE-Fc chimera protein; assay: BLI; saturation
RAGE-Fc chimera protein [4] = biological target: T1, RAGE-Fc chimera protein; assay: BLI

T1 sequence (Q15109 23-342, change not shown): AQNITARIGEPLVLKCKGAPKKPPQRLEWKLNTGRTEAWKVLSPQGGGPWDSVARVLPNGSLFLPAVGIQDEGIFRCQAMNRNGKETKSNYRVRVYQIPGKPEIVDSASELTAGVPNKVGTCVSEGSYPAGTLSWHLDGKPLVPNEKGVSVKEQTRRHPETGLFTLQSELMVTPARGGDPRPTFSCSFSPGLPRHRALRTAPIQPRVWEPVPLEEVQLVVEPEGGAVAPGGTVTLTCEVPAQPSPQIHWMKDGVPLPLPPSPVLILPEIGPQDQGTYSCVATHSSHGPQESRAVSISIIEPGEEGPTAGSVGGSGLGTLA

Binder | Kd (RAGE-Fc chimera protein [1]) [nM] | Kd (RAGE-Fc chimera protein [2]) [nM] | Kd (RAGE-Fc chimera protein [3]) [nM] | koff (RAGE-Fc chimera protein [4]) [s⁻¹]
DS-HMGB1 1–184 (domain or fragment, disulfide bond between C22 and C44) GKGDPKKPRGKMSSYAFFVQTCREEHKKKHPDASVNFSEFSKKCSERWKTMSAKEKGKFEDMAKADKARYEREMKTYIPPKGETKKKFKDPNAPKRPPSAFFLFCSEYRPKIKGEHPGLSIGDVAKKLGEMWNNTAADDKQPYEKKAAKLKEKYEKDIAAYRAKGKPDAAKKGVVKAEKSKKKK | 200 | 33.9 | 500 | 0.067
DS-HMGB1 1–164 (domain or fragment, disulfide bond between C22 and C44) GKGDPKKPRGKMSSYAFFVQTCREEHKKKHPDASVNFSEFSKKCSERWKTMSAKEKGKFEDMAKADKARYEREMKTYIPPKGETKKKFKDPNAPKRPPSAFFLFCSEYRPKIKGEHPGLSIGDVAKKLGEMWNNTAADDKQPYEKKAAKLKEKYEKDIAAYRAK | 900 | – | 3100 | 0.152
DS-HMGB1 1–214 (natural protein, disulfide bond between C22 and C44) MGKGDPKKPRGKMSSYAFFVQTCREEHKKKHPDASVNFSEFSKKCSERWKTMSAKEKGKFEDMAKADKARYEREMKTYIPPKGETKKKFKDPNAPKRPPSAFFLFCSEYRPKIKGEHPGLSIGDVAKKLGEMWNNTAADDKQPYEKKAAKLKEKYEKDIAAYRAKGKPDAAKKGVVKAEKSKKKKEEEEDEEDEEDEEEEEDEEDEDEEEDDDDE | 200 | 4.35 | 1300 | 0.043
dBB12L (FR-HMGB1 89–174::89–174) (other, fully reduced Cys105 (printed numbering) in both copies; printed n = entry n+1 (C22/C44/C105 = C23/C45/C106 in P09429); direct tandem fusion, with native flanks acting as the linker) KDPNAPKRPPSAFFLFCSEYRPKIKGEHPGLSIGDVAKKLGEMWNNTAADDKQPYEKKAAKLKEKYEKDIAAYRAKGKPDAAKKGVKDPNAPKRPPSAFFLFCSEYRPKIKGEHPGLSIGDVAKKLGEMWNNTAADDKQPYEKKAAKLKEKYEKDIAAYRAKGKPDAAKKGV | 1300 | – | – | –

Continued by falling Kd (RAGE-Fc chimera protein [1]), values first:

Kd (RAGE-Fc chimera protein [1]) [nM] | Kd (RAGE-Fc chimera protein [2]) [nM] | Kd (RAGE-Fc chimera protein [3]) [nM] | koff (RAGE-Fc chimera protein [4]) [s⁻¹] | Binder
15600 | – | 53400 | 0.439 | DS Box A 1-88 (protein, intramolecular disulfide Cys22-Cys44 in paper numbering (UniProt Cys23-Cys45); paper numbering omits the initiator Met (offset +1: paper Pro8-Ile78 = UniProt 9-79); any initiator Met or tag remnant left out) GKGDPKKPRGKMSSYAFFVQTCREEHKKKHPDASVNFSEFSKKCSERWKTMSAKEKGKFEDMAKADKARYEREMKTYIPPKGETKKKF
900 | 7.22 | 3000 | 0.015 | 3S-HMGB1 1–214 (natural protein) GKGDPKKPRGKMSSYAFFVQTSREEHKKKHPDASVNFSEFSKKSSERWKTMSAKEKGKFEDMAKADKARYEREMKTYIPPKGETKKKFKDPNAPKRPPSAFFLFSSEYRPKIKGEHPGLSIGDVAKKLGEMWNNTAADDKQPYEKKAAKLKEKYEKDIAAYRAKGKPDAAKKGVVKAEKSKKKKEEEEDEEDEEDEEEEEDEEDEDEEEDDDDE
800 | 86.1 | 2300 | 0.041 | FR-HMGB1 1–214 (natural protein) MGKGDPKKPRGKMSSYAFFVQTCREEHKKKHPDASVNFSEFSKKCSERWKTMSAKEKGKFEDMAKADKARYEREMKTYIPPKGETKKKFKDPNAPKRPPSAFFLFCSEYRPKIKGEHPGLSIGDVAKKLGEMWNNTAADDKQPYEKKAAKLKEKYEKDIAAYRAKGKPDAAKKGVVKAEKSKKKKEEEEDEEDEEDEEEEEDEEDEDEEEDDDDE

— paper PMC13486833 (2026)
